Like-named read-outs stand apart in the source and are kept apart here.
Tests used:
[1] = biological target: T1, cyno CD47-His protein (cynomolgus, UniProt A0A2K5X523 19-139); test: ELISA on cyno CD47-His protein, OD 450nm [Cont'd) B]
T1 construct: also called cynomolgus CD47; not shown: His tag

[2] = biological target: T2, human CD47-His protein (human, UniProt Q08722 19-139); test: ELISA on human CD47-His protein, OD 450nm
T2 construct: Recombinant human CD47 with His tag; also called human CD47-his tag protein; CD47 antigen; not shown: His tag

[3] = biological target: T2, human CD47-His protein; test: SPR (Biacore) affinity ranking, antibody captured on protein A chip, 5 nM human CD47-his injected
Experimental: (§1) To explore the binding kinetics of the humanized antibody, this example performed the affinity ranking using biacore. B5711, B5712, B5713, B5714, B5715 and B5716 mAbs were captured using protein A chip. 5 nM of human CD47-his tag protein was injected over captured antibodies for 120s at a flow rate of 30 μL/min. The antigen was allowed to dissociate for 130s.

[4] = biological target: T3, Tag2-CD47 (UniProt Q08722 19-139); test: HTRF blocking assay, ratio 665 nm/615 nm; blocked ligand: Tag1-SIRP-α binding to Tag2-CD47
T3 construct: Tagged reagent of the HTRF assay; also called CD47 (HTRF assay)
Excerpt: (§2) To evaluate the activities of humanized anti-huCD47 mAbs on blocking SIRP-α interaction, the HTRF assay was employed. The interaction between Tag1-SIRP-α and Tag2-CD47 was detected by using anti-Tag1-Terbium (HTRF donor) and anti-Tag2-XL665 (HTRF acceptor). When the donor and acceptor antibodies were brought into close proximity due to SIRP-α and CD47 binding, excitation of the donor antibody triggers fluorescent resonance energy transfer (FRET) towards the acceptor antibody, which in turn emitted specifically at 665 nm. This specific signal is directly proportional to the extent of CD47/SIRP-α interaction. Thus, a molecule blocking CD47/SIRP-α interaction would cause a reduction in HTRF signal.
Anti-CD47 antibodies B5711, B5712, B5713, B5714, B5715, and B5716 were evaluated on their activities in blocking the interaction of CD47 and SIRP-α.

[5] = biological target: T2, human CD47-His protein; test: ELISA, purified antibody titrated on CD47-His protein, OD 450nm
[6] = biological target: T3, Tag2-CD47; test: HTRF blocking assay, ratio 665 nm/615 nm; blocked ligand: Tag1-SIRP-α binding to Tag2-CD47; remark: listed apart in the source
Excerpt: as §2, with “To further” for “To”, “functions” for “activities”, “the mouse” for “humanized”, “triggered” for “triggers”, “emits” for “emitted”
G08 and H06 antibodies were evaluated for their activity to blocking the interaction of CD47 and SIRP-α.

[7] = biological target: T2, human CD47-His protein; test: SPR (Biacore T200) full kinetics, antibody captured on protein A chip, serial dilution of human CD47-his injected
Experimental: The binding of the humanized antibodies to recombinant CD47 protein (human CD47-his tag) was tested by BIACORE™ using a capture method. B5712 and B5715 mAbs were captured using protein A chip. A serial dilution of human CD47-his tag protein was injected over captured antibody for 120s at a flow rate of […]. The antigen was allowed to dissociate for 600s. All the experiments were carried out on a Biacore T200.

[8] = biological target: T2, human CD47-His protein; test: SPR (Biacore) affinity ranking, antibody captured on protein A chip, 5 nM human CD47-his injected; affinity ranking, single 5 nM injection of human CD47-his, 130s dissociation
Experimental: as §1

T3 sequence (Q08722 19-139): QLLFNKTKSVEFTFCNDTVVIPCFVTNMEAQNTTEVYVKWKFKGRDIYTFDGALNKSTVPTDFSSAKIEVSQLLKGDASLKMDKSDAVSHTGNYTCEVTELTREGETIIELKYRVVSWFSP
T2 sequence (Q08722 19-139 limits assumed): as the sequence (Q08722 19-139) above

B1: B5714 (antibody, V domains shown)
VH: QIQLQQSGPELVKPGASVKISCKASGYTFTDYYINWVKQKPGQGPEWIGWIYPGSANTKYSEKVKGKATLTVDTSSTTAYMQLSSLTSDDTAVYFCTRNDPLITAVVPDYWGQGTTLTVSS
VL: DIVMSQSPSSLAVSVGEKVTMSCRSSQSRLYSSNQKNYLAWYQQKPGQSPKLLIYWASTRESGVPDRFTGSGSGTDFTLTISSVKAEDLAVYYCQQYYNYPPTFGGGTKLEIK
EC50 [1]: 8.45 ng/mL | EC50 [2]: 6.49 ng/mL | Kd [3]: 1540 pM | koff [3]: 0.00291 s⁻¹ | kon [3]: 1.89e+06 M⁻¹ s⁻¹ | IC50 [4]: 140 pM

B2: H06 antibody (antibody, V domains shown)
VH: QIQLQQSGPELVKPGASVKISCKASGYTFTDYYINWVKQKPGQGPEWIGWIYPGSANTKYSEKVKGKATLTVDTSSTTAYMQLSSLTSDDTAVYFCTRNDPLITAVVPDYWGQGTTLTVSS
VL: DIVMSQSPSSLAVSVGEKVTMSCRSSQSRLYSSNQKNYLAWYQQKPGQSPKLLIYWASTRESGVPDRFTGSGSGTDFTLTISSVKAEDLAVYYCQQYYNYPPTFGGGTKLEIK
notes: Mouse variable domains from a Fab phage library of immunized mice; also called H06 clone; mAb H06
EC50 [5]: 5.39 ng/mL | IC50 [6]: 210 pM

B3: B5716 (antibody, V domains shown)
VH: QIQLVQSGAEVKKPGASVKVSCKASGYTFTDYYINWVRQAPGQGLEWMGWIYPGSANTKYSEKVKGRVTMTVDTSITTAYMELSRLRSDDTAVYYCTRNDPLITAVVPDYWGQGTTVTVSS
VL: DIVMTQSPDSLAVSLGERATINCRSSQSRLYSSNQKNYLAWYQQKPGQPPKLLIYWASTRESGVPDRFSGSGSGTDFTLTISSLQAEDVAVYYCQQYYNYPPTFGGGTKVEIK
notes: Humanized
EC50 [1]: 9.79 ng/mL | EC50 [2]: 11.5 ng/mL | Kd [3]: 547 pM | koff [3]: 0.00452 s⁻¹ | kon [3]: 8.26e+06 M⁻¹ s⁻¹ | IC50 [4]: 138 pM

B4: B5712 (antibody, V domains shown)
VH: QVQLVQSGAEVKKPGASVKVSCKASGDTFTDYYINWVRQAPGQGLEWMGWIYTGSGNTKYNEKFKGRVTMTRDTSISTAYMELSRLRSDDTAVYYCARYNPLITAVVPDYWGQGTTVTVSS
VL: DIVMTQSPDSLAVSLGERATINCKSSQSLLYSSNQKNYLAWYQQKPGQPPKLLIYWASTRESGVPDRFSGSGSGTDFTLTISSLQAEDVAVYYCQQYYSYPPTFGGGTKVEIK
notes: Humanized; also called HSP206A-CDRG
EC50 [1]: 10.2 ng/mL | EC50 [2]: 5.35 ng/mL | Kd [3]: 1280 pM | koff [3]: 0.00276 s⁻¹ | kon [3]: 2.15e+06 M⁻¹ s⁻¹ | IC50 [4]: 160 pM | Kd [7]: 847 pM | koff [7]: 0.00128 s⁻¹ | kon [7]: 1.51e+06 M⁻¹ s⁻¹

B5: B5713 (antibody, V domains shown)
VH: QIQLVQSGAEVKKPGASVKVSCKASGDTFTDYYINWVRQAPGQGLEWMGWIYTGSGNTKYNEKFKGRVTMTVDTSISTAYMELSRLRSDDTAVYYCARYNPLITAVVPDYWGQGTTVTVSS
VL: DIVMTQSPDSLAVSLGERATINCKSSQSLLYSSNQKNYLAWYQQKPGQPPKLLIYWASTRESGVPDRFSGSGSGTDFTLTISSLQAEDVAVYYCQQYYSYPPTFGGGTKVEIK
notes: Humanized
EC50 [1]: 9.5 ng/mL | EC50 [2]: 7.6 ng/mL | Kd [3]: 1000 pM | koff [3]: 0.00353 s⁻¹ | kon [3]: 3.53e+06 M⁻¹ s⁻¹ | IC50 [4]: 210 pM

B6: B5715 (antibody, V domains shown)
VH: QVQLVQSGAEVKKPGASVKVSCKASGYTFTDYYINWVRQAPGQGLEWMGWIYPGSANTKYSEKVKGRVTMTRDTSISTAYMELSRLRSDDTAVYYCARNDPLITAVVPDYWGQGTTVTVSS
VL: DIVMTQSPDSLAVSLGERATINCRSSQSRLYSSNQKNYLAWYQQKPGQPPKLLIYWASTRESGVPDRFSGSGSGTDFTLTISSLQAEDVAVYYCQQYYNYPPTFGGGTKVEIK
notes: Humanized; also called HSP206B-CDRG
EC50 [1]: 9.23 ng/mL | EC50 [2]: 7.09 ng/mL | Kd [3]: 979 pM | koff [3]: 0.00234 s⁻¹ | kon [3]: 2.39e+06 M⁻¹ s⁻¹ | IC50 [4]: 160 pM | Kd [7]: 560 pM | koff [7]: 0.000287 s⁻¹ | kon [7]: 513000 M⁻¹ s⁻¹

B7: G08 antibody (antibody, V domains shown)
VH: QIQLQQSGPELVKPGASVKISCKASGDTFTDYYINWVKQKPGQGLEWIGWIYTGSGNTKYNEKFKGKTTLTVDTSSSTAYMQLNSLTSEDTAVYFCARYNPLITAVVPDYWGQGTTLTVSS
VL: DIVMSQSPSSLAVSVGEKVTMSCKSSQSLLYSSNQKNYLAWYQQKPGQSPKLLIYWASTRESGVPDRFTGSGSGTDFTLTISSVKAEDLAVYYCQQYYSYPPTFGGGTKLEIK
notes: Mouse variable domains from a Fab phage library of immunized mice; also called G08 clone; mAb G08
EC50 [5]: 5.93 ng/mL | IC50 [6]: 270 pM

B8: B5711 (antibody, V domains shown)
VH: QIQLQQSGPELVKPGASVKISCKASGDTFTDYYINWVKQKPGQGLEWIGWIYTGSGNTKYNEKFKGKTTLTVDTSSSTAYMQLNSLTSEDTAVYFCARYNPLITAVVPDYWGQGTTLTVSS
VL: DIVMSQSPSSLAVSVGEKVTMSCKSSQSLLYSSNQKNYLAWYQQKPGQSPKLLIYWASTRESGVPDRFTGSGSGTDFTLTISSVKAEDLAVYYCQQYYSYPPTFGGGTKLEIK
notes: Expressed in 293F cells, purified by protein G
EC50 [1]: 7.95 ng/mL | EC50 [2]: 4.96 ng/mL | Kd [3]: 819 pM | koff [3]: 0.00383 s⁻¹ | IC50 [4]: 170 pM | kon [8]: 4.67e+06 M⁻¹ s⁻¹
